Earlier results on one molecule are cited in publication PMC12583094, “A novel antioxidant peptide from black soybean [Glycine max (L.) Merr.] with verified MPO interaction and multi-scale antioxidant activity” (Frontiers in Nutrition, 2025).

This series concerns MPO. From the text: The RU values increased from approximately 0.79 RU to around 24.51 RU with increasing concentrations.

B1: ceruloplasmin: a physiological MPO inhibitor (protein, UniProt P00450 20-1065, looked up)
Ceruloplasmin: KEKHYYIGIIETTWDYASDHGEKKLISVDTEHSNIYLQNGPDRIGRLYKKALYLQYTDETFRTTIEKPVWLGFLGPIIKAETGDKVYVHLKNLASRPYTFHSHGITYYKEHEGAIYPDNTTDFQRADDKVYPGEQYTYMLLATEEQSPGEGDGNCVTRIYHSHIDAPKDIASGLIGPLIICKKDSLDKEKEKHIDREFVVMFSVVDENFSWYLEDNIKTYCSEPEKVDKDNEDFQESNRMYSVNGYTFGSLPGLSMCAEDRVKWYLFGMGNEVDVHAAFFHGQALTNKNYRIDTINLFPATLFDAYMVAQNPGEWMLSCQNLNHLKAGLQAFFQVQECNKSSSKDNIRGKHVRHYYIAAEEIIWNYAPSGIDIFTKENLTAPGSDSAVFFEQGTTRIGGSYKKLVYREYTDASFTNRKERGPEEEHLGILGPVIWAEVGDTIRVTFHNKGAYPLSIEPIGVRFNKNNEGTYYSPNYNPQSRSVPPSASHVAPTETFTYEWTVPKEVGPTNADPVCLAKMYYSAVEPTKDIFTGLIGPMKICKKGSLHANGRQKDVDKEFYLFPTVFDENESLLLEDNIRMFTTAPDQVDKEDEDFQESNKMHSMNGFMYGNQPGLTMCKGDSVVWYLFSAGNEADVHGIYFSGNTYLWRGERRDTANLFPQTSLTLHMWPDTEGTFNVECLTTDHYTGGMKQKYTVNQCRRQSEDSTFYLGERTYYIAAVEVEWDYSPQREWEKELHHLQEQNVSNAFLDKGEFYIGSKYKKVVYRQYTDSTFRVPVERKAEEEHLGILGPQLHADVGDKVKIIFKNMATRPYSIHAHGVQTESSTVTPTLPGETLTYVWKIPERSGAGTEDSACIPWAYYSTVDQVKDLYSGLIGPLIVCRRPYLKVFNPRRKLEFALLFLVFDENESWYLDDNIKTYSDHPEKVNKDDEEFIESNKMHAINGRMFGNLQGLTMHVGDEVNWYLMGMGNEIDLHTVHFHGHSFQYKHRGVYSSDVFDIFPGTYQTLEMFPRTPGIWLLHCHVTDHIHAGMETTYTVLQNEDTKSG
On to B1, for which the “binding to MPO by SPR” value is reported as “clear dose-dependent binding effect”.
